This note sets out measurements from PMC6160142, “Structural and biochemical characterization of the Cutibacterium acnes exo-β-1,4-mannosidase that targets the N-glycan core of host glycoproteins” (PLoS ONE, 2018).

Data set [1] relates to O=[N+]([O-])c1ccc(O[C@@H]2O[C@H](CO)[C@@H](O)[C@H](O)[C@@H]2O)cc1. Description: purified protein. The conditions noted are these: stated pHopt and Topt (pH 6.5, 60 °C; methods for pNP sugars give 50 mM sodium phosphate pH 6.0, 50 °C, 10 min); 0.5 to 20 mM substrate.
Data set [2] addresses CaMan5_18, exo-β-1,4-mannosidase (GH5 subfamily 18) from Cutibacterium acnes strain 266 (Cutibacterium acnes strain 266). Description: SEC; HiLoad 16/60 Superdex 200 prep grade in 25 mM K2HPO4 pH 7.2, 150 mM NaCl, calibrated with five protein standards.

As to “CaMan5_18 (Cutibacterium acnes subsp. acnes)”, in data set [1], the Km was found to be 10.4 mM, the kcat was 7.8 s⁻¹ and the kcat/Km stood at 750 M⁻¹ s⁻¹.
Substance “CaMan5_18, exo-β-1,4-mannosidase (GH5 subfamily 18) from Cutibacterium acnes strain 266 (enzyme)” came in with a stoichiometry N in data set [2] of 2.

In general, Km refers to the substrate concentration at which the rate is half of its maximum. As usually defined, the kcat is the maximal rate divided by the concentration of active sites. What is called kcat/Km is the second-order rate constant that governs catalysis at low substrate concentration. One may read the stoichiometry N as the number of molecules, sites or subunits per partner or assembly.
